The supplement of paper PMC9170038

Tested on: MS2 coat protein
Assay: apparent KD of MS2 coat protein; designed switch direction (-1 OFF switch, 1 ON switch): 1; higher = weaker reporter binding
In short: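 Designed RNA switches with common flanks were transcribed on Illumina chips by stalled E. coli RNA polymerase and titrated with SNAP-549-labelled MS2 coat protein, from 0.7 or 1.5 nM doubling to 3 µM, in Tris-HCl pH 7.5 buffer with KCl, MgCl2, BSA, DTT, tRNA and Tween-20. Steps lasted 0.8–1.5 h (lowest) to 10–20 min (highest). Titrations ran without input, with 200 uM small-molecule ligand, or with an oligonucleotide input. Normalised cluster fluorescence was curve-fitted, and apparent KD is the per-design median over clusters.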

[1] = Eterna round: R95, input ligand: FMN 200 uM
[2] = Eterna round: R95, input ligand: microRNA oligo, concentration not stated
[3] = Eterna round: R95, input ligand: none
[4] = input ligand: microRNA oligo, concentration not stated

Row | Sequence | apparent KD of MS2 coat protein [1] [nM] | apparent KD of MS2 coat protein [2] [nM] | apparent KD of MS2 coat protein [3] [nM] | apparent KD of MS2 coat protein [4] [nM] | apparent KD of MS2 coat protein (input ligand: FMN 200 uM) [nM] | apparent KD of MS2 coat protein (input ligand: none) [nM]
1 | UGCAUACAUGAGGAUCACCCAUGUCAACUUAGUCGAGGAUAUGGGCAGCCGUGAGGCGAACCAGAAGGCGAAUUGU [JL-ss1-3.02 ViennaUCT mod] (puzzle: Same State 1) | 18.5 | 43.8 | 45.7 | – | – | –
2 | UGCCUGAGUCGAGGAUAUUAUGGAUCCUCUAAUACAUGAGGAUCACCCAUGUAAUUAAUUAUACAUGAGAAGGUGACUCAGGCU [SSNG2/12-B1] (Eterna round: R96, puzzle: Same State NG 2) | – | – | – | 293 | – | –
3 | UGCCUGAGUCGAGGAUAUUAUGGAUCCUUUAAUACAUGAGGAUCACCCAUGUAAUUAAUUAUACAUGAGAAGGUGACUCAGGCU [SSNG2/11-B3] (Eterna round: R96, puzzle: Same State NG 2) | – | – | – | 194 | 24.3 | 253
4 | UGCGGAUAACAGUAGGAUAUGGUCAACGCCACAUGAGGAUCACCCAUGUCGUACCGGCACCUGGACUAGAAGGACUGCCUCCCGC [Esleberi] (puzzle: Same State 2) | 11.6 | 26.4 | 38 | – | – | –
5 | UGCUACGGAGACAUGAGGAUCACCCAUGUCGCUGCUUAAGGGCAGGAUAUGAAAGGGAAUCCCAAUCAGAAGGGCCGCAGCCAC [Isanxeanor] (Eterna round: R96, puzzle: Same State NG 3) | – | – | – | 22.8 | 35.3 | 32.6
6 | UGCUAUUGUAUAUUGGUGCAAGCUUUUUGACAUGAGGAUCACCCAUGUACUCGUCAUUAGCGCAGUCCGUAGACUGC (puzzle: Sensor for hsa-mir-208a) | 74.2 | 15.7 | 79 | – | – | –
7 | UGGAUCUAGGCUUGCCUGGGUCCUUGUUGACAUGAGGAUCACCCAUGUGUUUUUUUUUUGCUUUUUGUUUGUCAACA [JL A Humble Attempt mod 1] (puzzle: Sensor for hsa-mir-208a) | 20.8 | 13.6 | 26.1 | – | – | –
8 | UGGCUCAGACGAGGAUAUACGUGGUCACAUGAGGAUCACCCAUGUCUCGAGCUUCGGCUCGAGGCGUAGAAGGCGUCUGAGCCA [SSNG2/6-A2] (Eterna round: R96, puzzle: Same State NG 2) | – | – | – | 141 | 125 | 218
9 | UGGCUCAGACGAGGAUAUACGUGGUCACAUGAGGAUCACCCAUGUCUCGAGCUUCGGCUCGAGGCGUAGAAGGUGUCUGAGCCA [SSNG2/6-C2] (Eterna round: R96, puzzle: Same State NG 2) | – | – | – | 609 | 192 | 575
10 | UGGCUCAGACGAGGAUAUAUGUAAUAACAUGAGGAUCACCCAUGUGUCGAGCUUCGGCUCGACACAUAGAAGGCGUCUGAGCCU [SSNG2/2-A3] (Eterna round: R96, puzzle: Same State NG 2) | – | – | – | 20.2 | 12.7 | 33.3
11 | UGGCUCAGACGAGGAUAUAUGUCUCGAGCUUCGGCUCGAGACAUGAGGAUCACCCAUGUAAUAACAUAGAAGGUGUCUGAGCCA [SSNG2/1-C2] (Eterna round: R96, puzzle: Same State NG 2) | – | – | – | 240 | 50.6 | 263
12 | UGGCUCAGACGAGGAUAUAUGUCUCGAGCUUCGGCUCGAGACAUGAGGAUCACCCAUGUAAUAACAUAGAAGGUGUCUGAGCCU [SSNG2/1-C3] (Eterna round: R96, puzzle: Same State NG 2) | – | – | – | 226 | 42.9 | 388
13 | UGGCUCAGACGAGGAUAUGAUCAUGGCGCUUCGGCGCAUACAUGAGGAUCACCCAUGUAAAGUGAUCAGAAGGUGUCUGAGCCU [SSNG2/7-B3] (Eterna round: R96, puzzle: Same State NG 2) | – | – | – | 12.4 | 11.5 | 14.4
14 | UGGCUCAGACUAGGAUAUGAUCAUGGCGCUUCGGCGCAUACAUGAGGAUCACCCAUGUAAAGUGAUCAGAAGGAGUCUGAGCCA [SSNG2/7-C2] (Eterna round: R96, puzzle: Same State NG 2) | – | – | – | 11.9 | 14.5 | 15.8
15 | UGGCUCAGAGCAGGAUAUAUGCGAUCACAUGAGGAUCACCCAUGUCUCGAGCUUCGGCUCGAGGCAUAGAAGGGCUCUGAGCCA [SSNG2/4-B2] (Eterna round: R96, puzzle: Same State NG 2) | – | – | – | 26.8 | 14.4 | 36.4
16 | UGGCUCAGAGCAGGAUAUAUGUGAUCACAUGAGGAUCACCCAUGUCUCGAGCUUCGGCUCGAGACAUAGAAGGGCUCUGAGCCU [SSNG2/3-B3] (Eterna round: R96, puzzle: Same State NG 2) | – | – | – | 52.7 | 110 | 137

Row | Sequence | apparent KD of MS2 coat protein [1] [nM] | apparent KD of MS2 coat protein [2] [nM] | apparent KD of MS2 coat protein [3] [nM] | apparent KD of MS2 coat protein [4] [nM] | apparent KD of MS2 coat protein (input ligand: FMN 200 uM) [nM] | apparent KD of MS2 coat protein (input ligand: none) [nM]
17 | UGGCUGAGUCGAGGAUAUUAUGGAUCCUCUAAUACAUGAGGAUCACCCAUGUAAUUAAUUAUACAUGAGAAGGUGACUCAGCCA [SSNG2/12-B2] (Eterna round: R96, puzzle: Same State NG 2) | – | – | – | 52.3 | 463 | 342
18 | UGGCUGGUGAUAGGAUAUACAUGAGGAAUCCUCGUAGAAGGAUCACGACAUGAGGAUCACCCAUGUAGCCGUCCGUAGACGGCU [salish99_SSNG1_r04_005] (Eterna round: R96, puzzle: Same State NG 1) | – | – | – | 198 | 493 | 551
19 | UGGCUGGUGCUAGGAUAUCCAUGAGGAAUCCUCGUAGAAGGAGCACGACAUGAGGAUCACCCAUGUAGCCGUCCGUAGACGGCU [salish99_SSNG1_r04_008] (Eterna round: R96, puzzle: Same State NG 1) | – | – | – | 185 | 287 | 240
20 | UGGCUGGUGCUAGGAUAUGCAUGAGGCCUCCUCGUAGAAGGAGCACGACAUGAGGAUCACCCAUGUAGCCGUCCGUAGACGGCU [salish99_SSNG1_r04_011] (Eterna round: R96, puzzle: Same State NG 1) | – | – | – | 50.1 | 62.7 | 63.3
21 | UGGUAACAUGAGGAUCACCCAUGUCAAAUGAAUCAAGGAUAUGGGAAAGGAGAAGAGAAACCAGAAGGUGAGGUUG [Altered State 1-15 - Jieux - Same State 1] (puzzle: Same State 1) | 108 | 205 | 167 | – | – | –
22 | UGGUAACAUGAGGAUCACCCAUGUCAAGAGAAUCAAGGAUAUGGUAAGUAAUAAGAGAAUCUAGAAGGUGAAGUUG [Altered State 1-25 - Jieux - Same State 1] (puzzle: Same State 1) | – | 73.3 | – | – | – | –
23 | UGGUACAUGGGAGGAUAUCUCAUGGAGACAUGAGGAUCACCCAUGUAGUUGGGCCGGAAACGGUGAGAGAAGGCCCAUGUACCU [JL SSNG1 3.71] (Eterna round: R96, puzzle: Same State NG 2) | – | – | – | 338 | 377 | 473
24 | UGGUACAUGGGAGGAUAUGGAGUGAAGACAUGAGGAUCACCCAUGUUAUAAAUGCCGAGAGGCAACUAGAAGGCCCAUGUACCU [JL SSNG1 3.94] (Eterna round: R96, puzzle: Same State NG 2) | – | – | – | 54.3 | – | –
25 | UGUACCUUCACAGGAUAUCAUGCGAAAAUUGCGUGAGAAGGGUGAAUACUGUGUUAAUAAAAGCACAUGAGGAUCACCCAUGUA [SameState NG1 #57] (Eterna round: R96, puzzle: Same State NG 1) | – | – | – | 12.7 | 392 | 43.4
26 | UGUCCAGCCUGAGCUGGACAAAAGCAUGUACAUGAGGAUCACCCAUGUUCAUGUACAAGCUUUUUGCUCGUCUUAGG [salish99_208a_r3_066] (puzzle: Sensor for hsa-mir-208a) | 695 | 19.2 | 506 | – | – | –
27 | UGUCCAGCCUGUGCUGGUCUUUAGCAUGUACAUGAGGAUCACCCAUGUCGUGUACAUGCUUUUUGCUCGUCUUUAAA [Photon Torp-05] (puzzle: Sensor for hsa-mir-208a) | 68.9 | 25.9 | 92.2 | – | – | –
28 | UGUCCAGCCUGUGCUGGUCUUUUGCAUGUACAUGAGGAUCACCCAUGUCGUGUUCAUGCUUUUUGCUCGUCUUUAAA [Photon Torp-02] (puzzle: Sensor for hsa-mir-208a) | 49.7 | 17.2 | 53.5 | – | – | –
29 | UGUUAGUAGACAGGAUAUUGAAUGUUAAGUAUUAACAUGAGGAUCACCCAUGUAUUUGAUUGGUACAAGAAGGGUCAAGUUUGU [JR_SSNG2_Sub013] (Eterna round: R96, puzzle: Same State NG 2) | – | – | – | 191 | 487 | 320
30 | UGUUAUUAGACAGGAUAUUGAUUGUAAAGUUUUUACAUGAGGAUCACCCAUGUUGUUCAUUCGAACAAGAAGGGUCAAGUUUUU [JR_SSNG2_Sub018] (Eterna round: R96, puzzle: Same State NG 2) | – | – | – | 35.9 | 153 | 137
31 | UGUUGUAAUACAGGAUAUCUAUUAUUUUUAUUUAGAGAAGGGUAAUCACAUGAGGAUCACCCAUGUAUAUACGAGGAAGAAGAG [JMF's solution 4] (Eterna round: R96, puzzle: Same State NG 1) | – | – | – | 126 | – | –
32 | UGUUGUAUUACAGGAUAUCUAGAAUUUUUAUUUAGAGAAGGGUAUUCACAUGAGGAUCACCCAUGUAUAUACGAGGAAGUUGUG [JMF's solution 30] (Eterna round: R96, puzzle: Same State NG 1) | – | – | – | 27.9 | – | –
